Test results published in patent publication EP2083016A1 (U.S. Medical Research Institute of Infectious Diseases, dated 2009).

What was measured:
[1] = target: T1, HLA-DR1 (DR1 alpha/beta; DRA and DRB1*0101) on the cell surface (human); test: flow cytometry; toxin on cells bearing HLA-DR1
[2] = target: T1, HLA-DR1 (DR1 alpha/beta; DRA and …); test: flow cytometry on HLA-DR-bearing cells, FITC rabbit anti-TSST-1
[3] = target: T1, HLA-DR1 (DR1 alpha/beta; DRA and …); test: flow cytometry on human MHC class II expressing cells
[4] = target: T1, HLA-DR1 (DR1 alpha/beta; DRA and …); test: flow cytometry on HLA-DR-bearing cells, FITC rabbit anti-SpeA

B1: staphylococcal enterotoxin D (SED) (ligand)
chain: NENIDSVKEKELHKKSELSSTALNNMKHSYADKNPIIGENKSTGDQFLENTLLYKKFFTDLINFEDLLINFNSKEMAQHFKSKNVDVYPIRYSINCYGGEIDRTACTYGGVTPHEGNKLKERKKIPINLWINGVQKEVSLDKVQTDKKNVTVQELDAQARRYLQKDLKLYNNDTLGGKIQRGKIEFDSSDGSKVSYDLFDVKGDFPEKQLRIYSDNKTLSTEHLHIDIYLYEK
Does B1 bind [1]?
Result: binds

B2: toxic shock syndrome toxin-1 (TSST-1), wild type (ligand)
chain: STNDNIKDLLDWYSSGSDTFTNSEVLDNSLGSMRIKNTDGSISLIIFPSPYYSPAFTKGEKVDLNTKRTKKSQHTSEGTYIHFQISGVTNTEKLPTPIELPLKVKVHGKDSPLKYGPKFDKKQLAISTLDFEIRHQLTQIHGLYRSSDKTGGYWKITMNDGSTYQSDLSKKFEYNTEKPPINIDEIKTIEAEIN
Does B2 bind [2]?
Result: binds

B3: staphylococcal enterotoxin A (SEA), wild type (ligand)
chain: SEKSEEINEKDLRKKSELQGTALGNLKQIYYYNEKAKTENKESHDQFLQHTILFKGFFTDHSWYNDLLVDFDSKDIVDKYKGKKVDLYGAYYGYQCAGGTPNKTACMYGGVTLHDNNRLTEEKKVPINLWLDGKQNTVPLETVKTNKKNVTVQELDLQARRYLQEKYNLYNSDVFDGKVQRGLIVFHTSTEPSVNYDLFGAQGQYSNTLLRIYRDNKTINSENMHIDIYLYTS
Does B3 bind [3]?
Result: binds

B4: SpeA mutant L42A (ligand)
chain: QQDPDPSQLHRSSLVKNLQNIYFLYEGDPVTHENVKSVDQLASHDLIYNVSGPNYDKLKTELKNQEMATLFKDKNVDIYGVEYYHLCYLCENAERSACIYGGVTNHEGNHLEIPKKIVVKVSIDGIQSLSFDIETNKKMVTAQELDYKVRKYLTDNKQLYTNGPSKYETGYIKFIPKNKESFWFDFFPEPEFTQSKYLMIYKDNETLDSNTSQIEVYLTTK
Does B4 bind [4]?
Result: binds
